{"source": "the RNAGym collection of RNA variant scans (doi:10.1093/molbev/msab373)", "parents": {"B1": {"name": "Azoarcus group I ribozyme (parent)", "chain": "GUGCCUUGCGCCGGGAAACCACGCAAGGGAUGGUGUCAAAUUCGGCGAAACCUAAGCGCCCGCCCGGGCGUAUGGCAACGCCGAGCCAAGCUUCGGCGCCUGCGCCGAUGAAGGUGUAGAGACUAGACGGCACCCACCUAAGGCAAACGCUAUGGUGAAGGCAUAGUCCAGGGAGUGGCGAAAGUCACACAAACCGG"}}, "data": [{"variants_of": "B1", "test": "reverse-splicing fitness (ratio to wild type); higher = more active; in vitro selection; Mg2+ level not given", "procedure,_shortened": "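An in vitro group I ribozyme library with randomized positions was T7-transcribed and gel-purified. In triplicate, 10 pmol RNA in EPPS pH 7.5 was reacted with 50 pmoles of a 30-nt RNA substrate for 1 h at 37 °C across several added MgCl2 levels (1–48 mM), then stopped with EDTA. Products were reverse transcribed from a substrate-complementary primer, PCR-amplified and sequenced (HiSeq 4000). Fitness is a variant's read proportion after selection over that before, normalised to wild type.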", "values": [{"variant": "C82G A120C A145C C150A C169A U176C", "reverse-splicing fitness": 0.00645}, {"variant": "C82G A120C A145C C150A C169A U176A", "reverse-splicing fitness": 0.0154}, {"variant": "C82G A120C A145C C150A C169A U176G", "reverse-splicing fitness": 0.00522}, {"variant": "C82G A120C C150G C169A", "reverse-splicing fitness": 0.00942}, {"variant": "C82G A120C C150G C169G", "reverse-splicing fitness": 0.00797}, {"variant": "C82G A120C A145C C150A C169U", "reverse-splicing fitness": 0.00799}, {"variant": "C82G A120C A145C C150A C169G", "reverse-splicing fitness": 0.00715}, {"variant": "C82G A120C A145C C150A C169A", "reverse-splicing fitness": 0.00726}, {"variant": "C82G A111U C150U C169G U176A", "reverse-splicing fitness": 0.0149}, {"variant": "C82G A111U C150U C169G U176C", "reverse-splicing fitness": 0.0169}, {"variant": "C82G A111U C150U C169G U176G", "reverse-splicing fitness": 0.00689}, {"variant": "C82G A120C C150A C169G U176A", "reverse-splicing fitness": 0.0187}, {"variant": "C82G A120C C150A C169G U176G", "reverse-splicing fitness": 0.00501}, {"variant": "C82G A120C C150A C169G U176C", "reverse-splicing fitness": 0.0222}, {"variant": "C82G A120C C150G C169A U176G", "reverse-splicing fitness": 0.0082}, {"variant": "C82G A120C C150G C169A U176C", "reverse-splicing fitness": 0.0106}, {"variant": "C82G A120C C150G C169A U176A", "reverse-splicing fitness": 0.01}, {"variant": "C82G A120C A145U C150U C169G U176A", "reverse-splicing fitness": 0.0139}, {"variant": "C82G A120C A145U C150U C169G U176G", "reverse-splicing fitness": 0.0044}, {"variant": "C82G A120C A145U C150U C169G U176C", "reverse-splicing fitness": 0.015}, {"variant": "C82G A120C A145C C150U C169G", "reverse-splicing fitness": 0.00749}, {"variant": "C82G A120C A145C C150U C169U", "reverse-splicing fitness": 0.0122}, {"variant": "C82G A120C A145C C150U C169A", "reverse-splicing fitness": 0.008}, {"variant": "C82G A120C A145G C169A", "reverse-splicing fitness": 0.0105}, {"variant": "C82G A120C A145G C169G", "reverse-splicing fitness": 0.00863}, {"variant": "C82G A120C A145G C169U", "reverse-splicing fitness": 0.0256}, {"variant": "C82G A111U A145U C150G C169G U176G", "reverse-splicing fitness": 0.00649}, {"variant": "C82G A111U A145U C150G C169G U176C", "reverse-splicing fitness": 0.00646}, {"variant": "C82G A111U A145U C150G C169G U176A", "reverse-splicing fitness": 0.0083}, {"variant": "C82G A120C A145G U176A", "reverse-splicing fitness": 0.0722}, {"variant": "C82G A120C A145G U176G", "reverse-splicing fitness": 0.0158}, {"variant": "C82G A120C A145G U176C", "reverse-splicing fitness": 0.103}, {"variant": "C82G A111U C150G C169U U176C", "reverse-splicing fitness": 0.0129}, {"variant": "C82G A111U C150G C169U U176G", "reverse-splicing fitness": 0.00728}, {"variant": "C82G A111U C150G C169U U176A", "reverse-splicing fitness": 0.00863}, {"variant": "C82G A120C A145G C169A U176G", "reverse-splicing fitness": 0.00477}, {"variant": "C82G A120C A145G C169A U176A", "reverse-splicing fitness": 0.0209}, {"variant": "C82G A120C A145G C169A U176C", "reverse-splicing fitness": 0.0247}, {"variant": "C82G A120C A145U C150U C169G", "reverse-splicing fitness": 0.00838}, {"variant": "C82G A120C A145U C150U C169U", "reverse-splicing fitness": 0.0172}, {"variant": "C82G A120C A145U C150U C169A", "reverse-splicing fitness": 0.00933}, {"variant": "C82G A120C A145C C150A C169G U176A", "reverse-splicing fitness": 0.0302}, {"variant": "C82G A120C A145C C150A C169G U176C", "reverse-splicing fitness": 0.0164}, {"variant": "C82G A120C A145C C150A C169G U176G", "reverse-splicing fitness": 0.0056}, {"variant": "C82G A111U C169G U176C", "reverse-splicing fitness": 0.0227}, {"variant": "C82G A111U C169G U176G", "reverse-splicing fitness": 0.00614}, {"variant": "C82G A111U C169G U176A", "reverse-splicing fitness": 0.0157}, {"variant": "C82G A120C A145U C150A C169G", "reverse-splicing fitness": 0.00739}, {"variant": "C82G A120C A145U C150A C169A", "reverse-splicing fitness": 0.00989}, {"variant": "C82G A120C A145U C150A C169U", "reverse-splicing fitness": 0.00929}, {"variant": "C82G A120C A145U C169U U176G", "reverse-splicing fitness": 0.00344}, {"variant": "C82G A120C A145U C169U U176A", "reverse-splicing fitness": 0.0158}, {"variant": "C82G A120C A145U C169U U176C", "reverse-splicing fitness": 0.0154}, {"variant": "C82G A111U C150A C169G U176C", "reverse-splicing fitness": 0.0229}, {"variant": "C82G A111U C150A C169G U176G", "reverse-splicing fitness": 0.0075}, {"variant": "C82G A111U C150A C169G U176A", "reverse-splicing fitness": 0.021}, {"variant": "C82G A111U A145U C150A U176G", "reverse-splicing fitness": 0.0115}, {"variant": "C82G A111U A145U C150A U176C", "reverse-splicing fitness": 0.0315}, {"variant": "C82G A111U A145U C150A U176A", "reverse-splicing fitness": 0.0235}, {"variant": "C82G A120C A145C C150G", "reverse-splicing fitness": 0.0227}, {"variant": "C82G A120C A145C C150A", "reverse-splicing fitness": 0.0129}, {"variant": "C82G A120C A145C C150U", "reverse-splicing fitness": 0.0403}, {"variant": "C82G A120C A145U", "reverse-splicing fitness": 0.21}, {"variant": "C82G A120C A145C", "reverse-splicing fitness": 0.201}, {"variant": "C82G A120C A145G", "reverse-splicing fitness": 0.21}, {"variant": "C82G A111U C150U C169U U176C", "reverse-splicing fitness": 0.013}, {"variant": "C82G A111U C150U C169U U176G", "reverse-splicing fitness": 0.00694}, {"variant": "C82G A111U C150U C169U U176A", "reverse-splicing fitness": 0.014}, {"variant": "C82G A120C C150A C169U U176C", "reverse-splicing fitness": 0.0182}, {"variant": "C82G A120C C150A C169U U176G", "reverse-splicing fitness": 0.00663}, {"variant": "C82G A120C C150A C169U U176A", "reverse-splicing fitness": 0.0156}, {"variant": "C82G A111U C150U C169A U176C", "reverse-splicing fitness": 0.0148}, {"variant": "C82G A111U C150U C169A U176G", "reverse-splicing fitness": 0.00647}, {"variant": "C82G A111U C150U C169A U176A", "reverse-splicing fitness": 0.0188}, {"variant": "C82G A120C A145C C169U U176A", "reverse-splicing fitness": 0.0152}, {"variant": "C82G A120C A145C C169U U176G", "reverse-splicing fitness": 0.00352}, {"variant": "C82G A120C A145C C169U U176C", "reverse-splicing fitness": 0.0142}, {"variant": "C82G A120C A145C C150A C169U U176C", "reverse-splicing fitness": 0.0101}, {"variant": "C82G A120C A145C C150A C169U U176G", "reverse-splicing fitness": 0.0044}, {"variant": "C82G A120C A145C C150A C169U U176A", "reverse-splicing fitness": 0.0134}, {"variant": "C82G A120C C150G C169G U176A", "reverse-splicing fitness": 0.0067}, {"variant": "C82G A111U A145U C169U U176A", "reverse-splicing fitness": 0.0146}, {"variant": "C82G A111U A145U C169U U176C", "reverse-splicing fitness": 0.0128}]}]}
